Assay results: patent US20080085859A1, “Drug Promoting Ceramide Transport, Base Sequence for Producing the Drug, Method of Measuring Activity of Promoting Ceramide Release and Method of Measuring Activity of Promoting Intermembrane Ceramide Transfer” (JAPAN SCIENCE AND TECHNOLOGY AGENCY, priority 2003, published 2008)

Experiments:
[1] = system: LY-A2 cell; assay: cell labeling using C5-DMB-Cer and fluorescence microscopy (ER to Golgi apparatus); assay type: cell-based, Chinese hamster; settings: C5-DMB-Cer, traced at 33° C. 15 minutes, LY-A2/hCERT, FIG. 6
Method: The present inventors have already made it clear that the activity of ATP dependent transport from the endoplasmic reticulum of natural ceramide (hereinafter, also referred to as ER) to Golgi apparatus can be qualitatively evaluated from the analysis of reallocation from ER of C5-DMB-Cer which is a fluorescent ceramide analogue to Golgi apparatus (J. Cell Biol. 144,673-685, 1999). As described in detail, the cell was exposed to C5-DMB-Cer at 4° C. for 30 minutes for the purpose of performing the pulse labeling of a variety of organelle membranes within a cell containing ER, after washing, it was traced at 33° C. for 15 minutes by a fluorescene microscopy observation method. A method of performing cell labeling using C5-DMB-Cer and a method of performing an observation by a fluorescence microscopy were carried out by a method of Yasuda et al (J. Biol. Chem. 276, 43994-44002, 2001) and a method of Fukasawa et al (J. Cell Biol. 144, 673-685, 1999). Specifically, after CHO-K1 cell, LY-A2 cell and LY-A2/hCERT cell grown on a coverslip made of glass were treated at 4° C. for 30 minutes in F12 medium containing 1 micro-M C5-DMB-Cer, it was washed three times in 1 mL of F12 medium. […] The sample was observed under the fluorescence microscopy immediately after it has been fixed and photographed with a digital CCD camera.

[2] = system: SM synthase; assay: SM synthase activity, C6-NBD-Cer substrate, membrane fractions; assay type: biochemical, Chinese hamster; settings: LY-A2/hCERT versus LY-A2 and CHO-K1 cells, FIG. 5
Method: The assay of SM synthase activity was carried out using C6—NBD-Cer as a substrate by a method of Hanada et al (Biochim. Biophys. Acta 1086, 151-156, 1991). However, the membrane fractions prepared respectively from CHO-K1 cell, LY-A2 cell and LY-A2/hCERT cell were used as an enzyme source.

[3] = activity for promoting ceramide intermembrane transfer (donating/receiving membrane, castor seed lectin); assay type: biochemical
Source text: Subsequently, as described in detail below, whether or not hCERT protein and recombinant protein promotes the transfer between ceramide lipid membrane was considered, the purified hCERT protein and its recombinant protein were used in this assay were used. The present method was constructed on the basis of the principle of method of measuring the activity for promoting the intermembrane transfer of phosphatidylinositol by phosphatidylinositol transfer protein already reported by Kasper et al (Biochim. Biophys. Acta 664, 22-32, 1981) so that it becomes a new method of measuring the activity for promoting the ceramide intermembrane transfer. For the purpose of measuring the activity for promoting the intermembrane transfer, a donating membrane in which radioactive ceramide has been contained and a receiving membrane not containing ceramide were prepared. For the purpose of separating the lipid membrane, lactocylceramide was contained in the donating membrane. After the donating membrane and receiving membrane have been incubated with the protein sample to be targeted, castor seed lectin was added. Ceramide intermembrane-transferred can be quantified by measuring the radioactive activity of receptor membrane which has not been precipitated by a low speed centrifugation. […]

B1: hCERT protein: human CERT protein having an amino acid sequence of SEQ ID NO:1 (protein)
chain: MSDNQSWNSSGSEEDPETESGPPVERCGVLSKWTNYIHGWQDRWVVLKNNALSYYKSEDETEYGCRGSICLSKAVITPHDFDECRFDISVNDSVWYLRAQDPDHRQQWIDAIEQHKTESGYGSESSLRRHGSMVSLVSGASGYSATSTSSFKKGHSLREKLAEMETFRDILCRQVDTLQKYFDACADAVSKDELQRDKVVEDDEDDFPTTRSDGDFLHSTNGNKEKLFPHVTPKGINGIDFKGEAITFKATTAGILATLSHCIELMVKREDSWQKRLDKETEKKRRTEEAYKNAMTELKKKSHFGGPDYEEGPNSLINEEEFFDAVEAALDRQDKIEEQSQSEKVRLHWPTSLPSGDAFSSVGTHRFVQKVEEMVQNHMTYSLQDVGGDANWQLVVEEGEMKVYRREVEENGIVLDPLKATHAVKGVTGHEVCNYFWNVDVRNDWETTIENFHVVETLADNAIIIYQTHKRVWPASQRDVLYLSVIRKIPALTENDPETWIVCNFSVDHDSAPLNNRCVRAKINVAMICQTLVSPPEGNQEISRDNILCKITYVANVNPGGWAPASVLRAVAKREYPKFLKRFTSYVQEKTAGKPILF
modifications: HeLa cell
[1]
  accumulation of DMB fluorescence to Golgi apparatus region: accumulation comparable to CHO-K1 cell
[2]
  activity of the SM synthase: no difference
[3]; 37° C., 14C of supernatant and donating membrane, FIGS. 17, 18
  activity for promoting ceramide intermembrane transfer: detected depending on the amount of hCERT, the length of incubation time and incubation temperature
[3]; for 10 minutes
  ceramide transferred to the receiving membrane vesicle: ~50%
